Experimental data from PMC2185595 (The Journal of Cell Biology, 2000).
Values belong to the binder of their own block, whether it stands above or below them.

Key:
[1] = biological target: T1, Vps11 (two-hybrid fusion) (S. cerevisiae, UniProt P12868 1-1029); test: two-hybrid
T1 sequence: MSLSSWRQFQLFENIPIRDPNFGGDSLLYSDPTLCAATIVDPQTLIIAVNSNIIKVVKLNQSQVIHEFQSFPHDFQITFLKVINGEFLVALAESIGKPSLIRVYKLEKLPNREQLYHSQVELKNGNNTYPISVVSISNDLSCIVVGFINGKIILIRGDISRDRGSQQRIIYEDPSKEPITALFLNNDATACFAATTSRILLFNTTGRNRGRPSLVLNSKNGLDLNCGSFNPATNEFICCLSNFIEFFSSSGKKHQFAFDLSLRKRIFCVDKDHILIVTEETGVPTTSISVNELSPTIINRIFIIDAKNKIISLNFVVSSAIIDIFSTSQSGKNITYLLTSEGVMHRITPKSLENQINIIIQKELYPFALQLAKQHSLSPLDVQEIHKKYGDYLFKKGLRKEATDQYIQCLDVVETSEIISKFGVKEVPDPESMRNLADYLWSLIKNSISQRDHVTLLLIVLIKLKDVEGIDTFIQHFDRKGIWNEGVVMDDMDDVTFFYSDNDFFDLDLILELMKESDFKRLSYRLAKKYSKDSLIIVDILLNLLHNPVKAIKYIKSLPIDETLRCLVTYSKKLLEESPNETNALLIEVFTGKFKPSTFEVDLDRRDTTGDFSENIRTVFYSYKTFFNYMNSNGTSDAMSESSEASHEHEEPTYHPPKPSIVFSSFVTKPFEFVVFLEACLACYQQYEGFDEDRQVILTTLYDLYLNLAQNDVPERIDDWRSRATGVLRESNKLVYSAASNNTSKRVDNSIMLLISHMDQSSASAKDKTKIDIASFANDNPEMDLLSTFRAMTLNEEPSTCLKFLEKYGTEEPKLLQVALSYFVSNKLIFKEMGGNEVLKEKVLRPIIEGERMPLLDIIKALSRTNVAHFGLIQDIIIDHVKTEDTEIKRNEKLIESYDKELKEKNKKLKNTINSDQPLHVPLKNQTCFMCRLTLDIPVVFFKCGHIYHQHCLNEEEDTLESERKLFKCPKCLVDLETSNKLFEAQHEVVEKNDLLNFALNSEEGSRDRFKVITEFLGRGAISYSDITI

[2] = biological target: Ypt7 (two-hybrid fusion, ypt7 C206S, C208S) (S. cerevisiae, UniProt P32939 1-208, C206S | C208S); test: two-hybrid
[3] = biological target: Ypt7 Q68L (two-hybrid fusion) (S. cerevisiae, UniProt P32939 1-208, Q68L | C206S | C208S); test: two-hybrid
[4] = biological target: Ypt7 T40A (two-hybrid fusion) (S. cerevisiae, UniProt P32939 1-208, T40A | C206S | C208S); test: two-hybrid
[5] = biological target: Ypt7 I41S (two-hybrid fusion) (S. cerevisiae, UniProt P32939 1-208, I41S | C206S | C208S); test: two-hybrid
[6] = biological target: Ypt7 D129A (two-hybrid fusion) (S. cerevisiae, UniProt P32939 1-208, D129A | C206S | C208S); test: two-hybrid
[7] = biological target: Ypt7 T22N (two-hybrid fusion) (S. cerevisiae, UniProt P32939 1-208, T22N | C206S | C208S); test: two-hybrid
[8] = biological target: T2, Vps21 (two-hybrid fusion) (S. cerevisiae, UniProt P36017 1-210); test: two-hybrid
T2 sequence: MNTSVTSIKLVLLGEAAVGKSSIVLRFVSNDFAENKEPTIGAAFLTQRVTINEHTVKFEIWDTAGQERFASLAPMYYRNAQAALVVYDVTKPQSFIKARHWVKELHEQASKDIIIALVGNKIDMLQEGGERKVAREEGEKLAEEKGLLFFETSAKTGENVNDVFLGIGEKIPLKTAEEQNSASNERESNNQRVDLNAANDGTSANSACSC

Ras1 (two-hybrid fusion) = biological target: T3, Ras1 (two-hybrid fusion) (UniProt P01119 1-309); test: two-hybrid
T3 sequence: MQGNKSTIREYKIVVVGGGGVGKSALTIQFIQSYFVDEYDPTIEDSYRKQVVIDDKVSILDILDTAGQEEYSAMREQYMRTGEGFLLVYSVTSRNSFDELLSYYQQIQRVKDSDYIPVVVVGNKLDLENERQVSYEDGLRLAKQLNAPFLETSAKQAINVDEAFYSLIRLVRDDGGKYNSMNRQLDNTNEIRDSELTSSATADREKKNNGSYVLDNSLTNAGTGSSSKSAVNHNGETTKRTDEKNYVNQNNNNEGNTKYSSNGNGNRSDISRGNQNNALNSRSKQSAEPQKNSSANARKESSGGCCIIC

protein A–Vps39 = biological target: T4, protein A–Vps39 (S. cerevisiae, UniProt Q07468 1-1049); test: pull-down
T4 sequence: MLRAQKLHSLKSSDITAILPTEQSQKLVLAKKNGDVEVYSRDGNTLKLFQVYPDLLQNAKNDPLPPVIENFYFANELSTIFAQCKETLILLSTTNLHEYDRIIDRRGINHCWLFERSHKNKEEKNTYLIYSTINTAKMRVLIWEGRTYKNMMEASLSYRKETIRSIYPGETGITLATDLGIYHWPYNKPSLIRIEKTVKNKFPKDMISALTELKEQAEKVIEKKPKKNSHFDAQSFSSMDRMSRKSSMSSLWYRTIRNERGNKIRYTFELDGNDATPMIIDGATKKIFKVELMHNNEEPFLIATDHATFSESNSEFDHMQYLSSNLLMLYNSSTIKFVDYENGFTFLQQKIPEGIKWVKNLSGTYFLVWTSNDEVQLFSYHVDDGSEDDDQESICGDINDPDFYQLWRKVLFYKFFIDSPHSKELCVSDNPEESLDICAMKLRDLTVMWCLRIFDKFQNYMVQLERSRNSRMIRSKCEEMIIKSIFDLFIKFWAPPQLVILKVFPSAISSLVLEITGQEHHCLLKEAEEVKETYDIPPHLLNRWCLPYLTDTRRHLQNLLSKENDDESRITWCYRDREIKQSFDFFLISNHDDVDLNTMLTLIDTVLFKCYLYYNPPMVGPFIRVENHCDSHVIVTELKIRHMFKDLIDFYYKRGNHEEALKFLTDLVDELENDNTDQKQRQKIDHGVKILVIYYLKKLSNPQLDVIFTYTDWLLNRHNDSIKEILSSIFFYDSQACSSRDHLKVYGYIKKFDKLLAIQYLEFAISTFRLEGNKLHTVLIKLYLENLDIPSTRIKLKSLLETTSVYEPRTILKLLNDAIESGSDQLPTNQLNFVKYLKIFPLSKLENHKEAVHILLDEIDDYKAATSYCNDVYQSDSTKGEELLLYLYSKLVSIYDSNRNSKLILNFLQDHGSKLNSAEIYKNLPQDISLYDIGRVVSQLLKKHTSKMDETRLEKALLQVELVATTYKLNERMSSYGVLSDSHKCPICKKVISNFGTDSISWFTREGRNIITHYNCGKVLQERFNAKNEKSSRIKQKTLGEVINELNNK

β-galactosidase activity [1]: 2.8 U | β-galactosidase activity [2]: ~4 U | β-galactosidase activity [3]: ~3 U | β-galactosidase activity [4]: ~13 U | β-galactosidase activity [5]: ~13 U | β-galactosidase activity [6]: 31 U | β-galactosidase activity [7]: ~5 U | β-galactosidase activity [8]: < 0.25 U | β-galactosidase activity (Ras1 (two-hybrid fusion)): < 0.25 U
B1: Vps39 (two-hybrid fusion) (natural protein)
chain: T4 sequence

binding result (protein A–Vps39): binds
B2: GST-Ypt7 (natural protein)
chain: MSSRKKNILKVIILGDSGVGKTSLMHRYVNDKYSQQYKATIGADFLTKEVTVDGDKVATMQVWDTAGQERFQSLGVAFYRGADCCVLVYDVTNASSFENIKSWRDEFLVHANVNSPETFPFVILGNKIDAEESKKIVSEKSAQELAKSLGDIPLFLTSAKNAINVDTAFEEIARSALQQNQADTEAFEDDYNDAINIRLDGENNSCSC
